Values of other authors as cited in paper PMC2994893.

Molecular target: Lck phospho-Tyr505 motif pTyr505 motif (Homo sapiens) (UniProt P06239)

Lck SH2 (from UniProt P06239)
Kd: 0.3 µM
